Columns and labels:
human glucagon [1] = target: T1, human glucagon (human); test: SPR Biacore 4000, antibody captured by anti-human Fc, GCG injected, 37 C
T1 construct: Bought peptide (Phoenix Pharmaceuticals, #028-02); 29 residue hormone; also called GCG; human GCG
Description: (§1) Experiments were performed at 25° C. and 37° C.
(§2) Kinetic association (kₐ) and dissociation (kd) rate constants were determined by processing and fitting the data to a 1:1 binding model using Scrubber 2.0c curve fitting software. Binding dissociation equilibrium constants (KD) and dissociative half-lives (t½) were calculated from the kinetic rate constants as: […]

human glucagon [2] = target: T1, human glucagon; test: cell-based or functional assay
human glucagon [3] = target: T1, human glucagon; test: SPR Biacore 4000, antibody captured by anti-human Fc, GCG injected, 25 C
Description: as §1, §2

T1 sequence (peptide, as listed by the source): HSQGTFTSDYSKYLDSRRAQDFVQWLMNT

Row | Binder | Kd (human glucagon [1]) [nM] | koff (human glucagon [1]) [s⁻¹] | kon (human glucagon [1]) [M⁻¹ s⁻¹] | t½ (human glucagon [1]) [min] | IC50, inhibition of GCG activation of HEK293/CRE-luc/hGCGR cells (luciferase reporter, 40 pM GCG) (human glucagon [2]) [M] | Kd (human glucagon [3]) [nM] | koff (human glucagon [3]) [s⁻¹] | kon (human glucagon [3]) [M⁻¹ s⁻¹] | t½ (human glucagon [3]) [min]
1 | H1H059P (antibody, V domains shown, The antibody was captured by an anti-human Fc antibody in SPR) VH: QVQLVESGGGVVQPGRSLRLSCAASGFAFSNYGMHWVRQAPGKGLEWVTFISYDGSNKYYADSVKGRFTISRDNSKNTLYLQVNSLRAEDTAVYYCAKEAVLAALFDYWGQGTLVTVSS VL: not shown | 4.78 | 0.0236 | 4.9e+06 | 0.5 | 9.1e-10 | 0.715 | 0.00178 | 2.5e+06 | 6
2 | H4H10238P (antibody, V domains shown) VH: QVQLVESGGGVVQPGRSLRLSCAASGFTFSSYGMHWVRQAPVKGLEWVAFISNDKSNKYYADSLKGRFTISRDNSKNTLYLQMNSLTAEDTAVYYCAKESILAALFDYWGQGTLVTVSS VL: not shown | 0.555 | 0.00274 | 4.94e+06 | 4 | 1.8e-11 | 0.16 | 0.00062 | 3.89e+06 | 19
3 | H4H10236P (antibody, V domains shown) VH: QVQLVESGGGVVQPGRSLRLSCAASGFTFSSYGMHWVRQTPGKGLEWVAFISYDGNNKYYADSVKGRFTISRDNSKNTLFLQMNSLRAEDTAVYYCAKESILAALFDYWGQGTLVTVSS VL: not shown | 2.08 | 0.0088 | 4.25e+06 | 1 | 2.5e-10 | 0.242 | 0.000746 | 3.08e+06 | 15
4 | H4H10231P (antibody, V domains shown) VH: QVQLVESGGGVVQPGRSLRLSCAASGFTFSTFGMHWVRQAPVKGLEWVAFISNDKNNKFYADSVKGRFTISRDNSRDTLYLQMNSLTPEDTAVYYCAKESILAALFDYWGQGTLVTVSS VL: not shown | 1.01 | 0.00245 | 2.4e+06 | 5 | 7.3e-12 | 0.0927 | 0.000685 | 7.39e+06 | 17
5 | H4H10250P (antibody, V domains shown) VH: QVQLVESGGGVVQPGRSLRLSCAASGFTFSSYGMHWVRQAPVKGLEWVAFISFDGSNKYYTDSVKGRFTISRDNSKNTLYLQMNSLTAEDTAIYYCAKESILAALFDYWGQGTLVTVSS VL: DIVMTQSPDSLAVSLGERATINCKSSQSVLYSSNNKNYLAWYQQKPRQPPNLLIYWASIRESGVPDRFSGSGSGTDFTLTISSLQAEDVAFYYCQQFYSIPTFGQGTKLEIK | 1.27 | 0.00708 | 5.58e+06 | 2 | 3.4e-11 | 0.283 | 0.000939 | 3.32e+06 | 12

Continued by falling Kd (human glucagon [1]), values first:

Row | Kd (human glucagon [1]) [nM] | koff (human glucagon [1]) [s⁻¹] | kon (human glucagon [1]) [M⁻¹ s⁻¹] | t½ (human glucagon [1]) [min] | IC50, inhibition of GCG activation of HEK293/CRE-luc/hGCGR cells (luciferase reporter, 40 pM GCG) (human glucagon [2]) [M] | Kd (human glucagon [3]) [nM] | koff (human glucagon [3]) [s⁻¹] | kon (human glucagon [3]) [M⁻¹ s⁻¹] | t½ (human glucagon [3]) [min] | Binder
6 | 0.907 | 0.00683 | 7.53e+06 | 2 | 3.4e-11 | 0.208 | 0.00103 | 4.96e+06 | 11 | H4H10237P (antibody, V domains shown) VH: QVQLVESGGGVVQPGRSLRLSCAASGFTFSSYGMHWVRQAPVKGLEWVAFISYDGSNKYYADSVKGRFTISRDNSKNTLYLQMNSLTAEDTAVYYCAKESILAALFDYWGQGTLVTVSS VL: not shown
7 | 0.559 | 0.00378 | 6.77e+06 | 3 | 2.2e-11 | 0.153 | 0.000732 | 4.8e+06 | 16 | H4H10270P (antibody, V domains shown) VH: QVQLVESGGGVVQPGRSLRLSCAASGFTFSSYGMHWVRQAPVKGLEWVAFISNDKSNKYYADSVKGRFTISRDNSKNTLYLQMNSLTAEDTAVYYCAKESILAALFDSWGQGTLVTVSS VL: DIVMTQSPDSLAVSLGERATINCKSSQSVLYSSNNKNYLAWYQQKPRQPPKLLIYWASIRESGVPDRFSGSGSGADFTLTISSLQAADVAVYYCQQFYSVPTFGQGTKLEIK
8 | 0.347 | 0.00223 | 6.4e+06 | 5 | 9.5e-12 | 0.0578 | 0.000541 | 9.36e+06 | 21 | H4H10223P (antibody, V domains shown, Kappa light chain variable region) VH: QVQLVESGGGVVQPGRSLRLSCAASGFTFNTYGMHWVRQAPVKGLEWVAFISNDKSNTFYADSVKGRFTISRDNSKNTLFLEMNSLTAEDTAVYYCAKESILAALFDYWGQGTLVTVSS VL: not shown
9 | 0.318 | 0.00147 | 4.61e+06 | 8 | 2.3e-11 | 0.0724 | 0.000231 | 3.19e+06 | 50 | H4H10232P (antibody, V domains shown) VH: QVQLVESGGGVVQPGRSLRLSCVASGFTFRNYDMHWVRQAPGKGLEWVAVTSSDGLNKFYSDSVKGRFTISRDNSKNTLSLQITGLRAEDTAVYYCAKESILAALFDYWGQGTLVTVSS VL: not shown
10 | 0.314 | 0.00248 | 7.9e+06 | 5 | 1.8e-11 | 0.0753 | 0.000582 | 7.72e+06 | 20 | H4H10256P (antibody, V domains shown) VH: QVQLVESGGGVVQPGRSLRLSCAASGFTFRTYGMHWVRQAPVKGLEWVAFISKDGSDKYYVDSVKGRFTISRDNSKNTLFLQMNSLTAEDTAVYYCAKESILAALFDYWGQGTLVTVSS VL: not shown

Reference: patent publication US20160075778A1 (Regeneron, published 2016)
